Measurements reported in paper PMC10397247.

How the values were obtained:
4H_APH = target: T1, 4H_APH; experiment: two-hybrid library CCmax;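 note: natural log of median RNA to DNA barcode read ratio; higher means stronger binding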
T1 chain: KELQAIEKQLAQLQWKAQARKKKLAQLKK

GCN2_T = experiment: two-hybrid library CCmax;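 note: natural log of median RNA to DNA barcode read ratio; higher means stronger binding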
4H3705-AA = target: T2, 4H3705-AA; experiment: two-hybrid library CCmax; settings: mean of both orientations;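 note: natural log of median RNA to DNA barcode read ratio; higher means stronger binding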
T2 chain: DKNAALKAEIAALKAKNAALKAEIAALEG

4H535-AA = target: T3, 4H535-AA; experiment: two-hybrid library CCmax; settings: mean of both orientations;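 note: natural log of median RNA to DNA barcode read ratio; higher means stronger binding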
T3 chain: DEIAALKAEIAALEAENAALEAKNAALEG

4H_BCR = target: T4, 4H_BCR; experiment: two-hybrid library CCmax; settings: mean of both orientations;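 note: natural log of median RNA to DNA barcode read ratio; higher means stronger binding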
T4 chain: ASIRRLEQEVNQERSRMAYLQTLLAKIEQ

4H465-AA = target: T5, 4H465-AA; experiment: two-hybrid library CCmax; settings: mean of both orientations;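 note: natural log of median RNA to DNA barcode read ratio; higher means stronger binding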
T5 chain: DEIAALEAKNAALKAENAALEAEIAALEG

4H486-AA = target: T6, 4H486-AA; experiment: two-hybrid library CCmax; settings: mean of both orientations
T6 chain: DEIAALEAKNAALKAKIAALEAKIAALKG

4H2600-AA = target: T7, 4H2600-AA; experiment: two-hybrid library CCmax
T7 chain: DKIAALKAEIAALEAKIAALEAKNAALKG

4H2898-AA = target: T8, 4H2898-AA; experiment: two-hybrid library CCmax; settings: mean of both orientations
T8 chain: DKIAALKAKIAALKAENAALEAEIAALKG

4H_GCN4 = experiment: two-hybrid library CCmax
4H58-AA = target: T9, 4H58-AA; experiment: two-hybrid library CCmax; settings: mean of both orientations
T9 chain: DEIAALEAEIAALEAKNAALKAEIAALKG

4H3020-AA = target: T10, 4H3020-AA; experiment: two-hybrid library CCmax; settings: mean of both orientations
T10 chain: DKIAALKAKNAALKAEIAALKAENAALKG

4H355-AA = target: T11, 4H355-AA; experiment: two-hybrid library CCmax; settings: mean of both orientations
T11 chain: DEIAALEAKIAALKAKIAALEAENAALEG

4H3365-AA = target: T12, 4H3365-AA; experiment: two-hybrid library CCmax; settings: mean of both orientations
T12 chain: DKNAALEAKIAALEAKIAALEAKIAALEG

4H3782-AA = target: T13, 4H3782-AA; experiment: two-hybrid library CCmax; settings: mean of both orientations
T13 chain: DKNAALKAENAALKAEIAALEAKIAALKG

4H895-AA = target: T14, 4H895-AA; experiment: two-hybrid library CCmax; settings: mean of both orientations
T14 chain: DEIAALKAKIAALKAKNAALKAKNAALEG

4H3651-AA = target: T15, 4H3651-AA; experiment: two-hybrid library CCmax; settings: mean of both orientations
T15 chain: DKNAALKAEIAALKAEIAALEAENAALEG

4H2721-AA = target: T16, 4H2721-AA; experiment: two-hybrid library CCmax; settings: mean of both orientations
T16 chain: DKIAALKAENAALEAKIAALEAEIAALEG

4H2750-AA = target: T17, 4H2750-AA; experiment: two-hybrid library CCmax; settings: mean of both orientations
T17 chain: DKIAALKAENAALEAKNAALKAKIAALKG

4H3926-bH = target: T18, 4H3926-bH; experiment: two-hybrid library CCNG1
T18 chain: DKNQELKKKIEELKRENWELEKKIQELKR

4H348-bN = target: T19, 4H348-bN; experiment: two-hybrid library CCNG1
T19 chain: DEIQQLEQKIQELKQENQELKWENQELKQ

4H477-bN = target: T20, 4H477-bN; experiment: two-hybrid library CCNG1
T20 chain: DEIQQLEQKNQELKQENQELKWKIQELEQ

4H2473-bN = target: T21, 4H2473-bN; experiment: two-hybrid library CCNG1
T21 chain: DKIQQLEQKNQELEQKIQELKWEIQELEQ

4H3277-bN = target: T22, 4H3277-bN; experiment: two-hybrid library CCNG1
T22 chain: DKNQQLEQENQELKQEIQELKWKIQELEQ

4H40-bN = target: T23, 4H40-bN; experiment: two-hybrid library CCNG1
T23 chain: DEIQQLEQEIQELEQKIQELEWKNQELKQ

4H2915-bN = target: T24, 4H2915-bN; experiment: two-hybrid library CCNG1
T24 chain: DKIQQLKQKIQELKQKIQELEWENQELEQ

4H492-bN = target: T25, 4H492-bN; experiment: two-hybrid library CCNG1
T25 chain: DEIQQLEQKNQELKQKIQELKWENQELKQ

4H2717-bN = target: T26, 4H2717-bN; experiment: two-hybrid library CCNG1
T26 chain: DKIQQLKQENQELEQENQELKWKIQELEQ

4H2438-bN = target: T27, 4H2438-bN; experiment: two-hybrid library CCNG1
T27 chain: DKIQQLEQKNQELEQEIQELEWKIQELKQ

4H2692-bN = target: T28, 4H2692-bN; experiment: two-hybrid library CCNG1
T28 chain: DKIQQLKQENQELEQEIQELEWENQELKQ

4H2503-bN = target: T29, 4H2503-bN; experiment: two-hybrid library CCNG1
T29 chain: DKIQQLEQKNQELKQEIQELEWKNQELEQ

4H2839-bN = target: T30, 4H2839-bN; experiment: two-hybrid library CCNG1
T30 chain: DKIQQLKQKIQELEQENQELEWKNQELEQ

4H319-bN = target: T31, 4H319-bN; experiment: two-hybrid library CCNG1
T31 chain: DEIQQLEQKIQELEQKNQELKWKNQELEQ

4H3057-bN = target: T32, 4H3057-bN; experiment: two-hybrid library CCNG1
T32 chain: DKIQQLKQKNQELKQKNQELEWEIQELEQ

4H2588-bN = target: T33, 4H2588-bN; experiment: two-hybrid library CCNG1
T33 chain: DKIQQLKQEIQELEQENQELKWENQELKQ

4H741-bN = target: T34, 4H741-bN; experiment: two-hybrid library CCNG1
T34 chain: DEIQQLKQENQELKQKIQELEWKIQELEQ

4H363-bH = target: T35, 4H363-bH; experiment: two-hybrid library CCNG1
T35 chain: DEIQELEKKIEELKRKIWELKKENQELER

4H3907-bH = target: T36, 4H3907-bH; experiment: two-hybrid library CCNG1
T36 chain: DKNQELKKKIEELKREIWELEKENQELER

4H344-bH = target: T37, 4H344-bH; experiment: two-hybrid library CCNG1
T37 chain: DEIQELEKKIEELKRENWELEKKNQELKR

4H470-bH = target: T38, 4H470-bH; experiment: two-hybrid library CCNG1
T38 chain: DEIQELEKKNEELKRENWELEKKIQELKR

4H3961-bH = target: T39, 4H3961-bH; experiment: two-hybrid library CCNG1
T39 chain: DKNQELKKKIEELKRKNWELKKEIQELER

4H_GCN4, sequence (chain, as listed by the source): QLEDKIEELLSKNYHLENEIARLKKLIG

DKIAALKAEIAALEAKIAALEAKNAALKG [4H2600-AA]
interaction score (4H_APH): -1.47
interaction score (GCN2_T): -1.38
interaction score (4H3705-AA): 0.21
interaction score (4H535-AA): -0.657
interaction score (4H_BCR): -1.4
interaction score (4H465-AA): -1.72
interaction score (4H486-AA): 0.497
interaction score (4H2600-AA): 1.58
interaction score (4H2898-AA): 0.0245
interaction score (4H_GCN4): -1.63
interaction score (4H58-AA): 0.179
interaction score (4H3020-AA): -0.911
interaction score (4H355-AA): 2.12
interaction score (4H3365-AA): -0.236
interaction score (4H3782-AA): -1.12
interaction score (4H895-AA): -0.393
interaction score (4H3651-AA): 0.646
interaction score (4H2721-AA): -0.793
interaction score (4H2750-AA): -1.65

DKIQQLEQKNQELEQEIQELEWKIQELKQ [4H2438-bN]
interaction score (4H3926-bH): -4.14
interaction score (4H348-bN): -1.05
interaction score (4H477-bN): 0.509
interaction score (4H2473-bN): 1.05
interaction score (4H3277-bN): -0.843
interaction score (4H40-bN): -0.693
interaction score (4H2915-bN): 2
interaction score (4H492-bN): 0.204
interaction score (4H2717-bN): -0.613
interaction score (4H2438-bN): 1.09
interaction score (4H2692-bN): -1.41
interaction score (4H2503-bN): 0.452
interaction score (4H2839-bN): -1.05
interaction score (4H319-bN): -0.63
interaction score (4H3057-bN): 2.19
interaction score (4H2588-bN): -0.403
interaction score (4H741-bN): -0.278

DEIQELEKKIEELKRENWELEKKNQELKR [4H344-bH]
interaction score (4H363-bH): 0.49
interaction score (4H3907-bH): 0.791
interaction score (4H344-bH): 0.843
interaction score (4H470-bH): 0.944
interaction score (4H3961-bH): 0.837
